Data: patent US20250270332A1

Target: FZD/LRP
Test: cell-based or functional assay

Sequence of Wnt3a, recombinantly produced ligand (P56704 19-352): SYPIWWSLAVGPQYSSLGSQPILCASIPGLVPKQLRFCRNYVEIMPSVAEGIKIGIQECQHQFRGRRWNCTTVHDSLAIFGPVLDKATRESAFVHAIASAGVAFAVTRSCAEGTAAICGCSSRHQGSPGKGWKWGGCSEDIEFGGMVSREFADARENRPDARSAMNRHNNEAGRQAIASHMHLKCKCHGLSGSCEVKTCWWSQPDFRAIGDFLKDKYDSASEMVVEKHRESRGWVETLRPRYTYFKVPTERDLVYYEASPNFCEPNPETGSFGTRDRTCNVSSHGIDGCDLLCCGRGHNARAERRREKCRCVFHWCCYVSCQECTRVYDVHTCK

- % Wnt Maxima Avg: 100%
- EC50 (nM), TOPFLASH assay: 6 nM
- Maximal Signal (% Wnt3a maxima) (% Wnt3a maxima): 100
- Topflash EC50 (nM) Avg: 6 nM
Substance: Wnt3a, recombinantly produced ligand
